Test results reported in IntAct's records for PubMed 26751287.

B1: Transmembrane glycoprotein NMB (Homo sapiens), Q14956-1 (parent)
chain: MECLYYFLGFLLLAARLPLDAAKRFHDVLGNERPSAYMREHNQLNGWSSDENDWNEKLYPVWKRGDMRWKNSWKGGRVQAVLTSDSPALVGSNITFAVNLIFPRCQKEDANGNIVYEKNCRNEAGLSADPYVYNWTAWSEDSDGENGTGQSHHNVFPDGKPFPHHPGWRRWNFIYVFHTLGQYFQKLGRCSVRVSVNTANVTLGPQLMEVTVYRRHGRAYVPIAQVKDVYVVTDQIPVFVTMFQKNDRNSSDETFLKDLPIMFDVLIHDPSHFLNYSTINYKWSFGDNTGLFVSTNHTVNHTYVLNGTFSLNLTVKAAAPGPCPPPPPPPRPSKPTPSLATTLKSYDSNTPGPAGDNPLELSRIPDENCQINRYGHFQATITIVEGILEVNIIQMTDVLMPVPWPESSLIDFVVTCQGSIPTEVCTIISDPTCEITQNTVCSPVDVDEMCLLTVRRTFNGSGTYCVNLTLGDDTSLALTSTLISVPDRDPASPLRMANSALISVGCLAIFVTVISLLVYKKHKEYNPIENSPGNVVRSKGLSVFLNRAKAVFFPGNQEKDPLLKNQEFKGVS

Variants of: B1
Details: with ptk6_human PTK6, Q13882

Row | effect of a mutation on the interaction | Variant
1 | disrupting interaction strength | MECLYYFLGFLLLAARLPLDAAKRFHDVLGNERPSAYMREHNQLNGWSSDENDWNEKLYPVWKRGDMRWKNSWKGGRVQAVLTSDSPALVGSNITFAVNLIFPRCQKEDANGNIVYEKNCRNEAGLSADPYVYNWTAWSEDSDGENGTGQSHHNVFPDGKPFPHHPGWRRWNFIYVFHTLGQYFQKLGRCSVRVSVNTANVTLGPQLMEVTVYRRHGRAYVPIAQVKDVYVVTDQIPVFVTMFQKNDRNSSDETFLKDLPIMFDVLIHDPSHFLNYSTINYKWSFGDNTGLFVSTNHTVNHTYVLNGTFSLNLTVKAAAPGPCPPPPPPPRPSKPTPSLATTLKSYDSNTPGPAGDNPLELSRIPDENCQINRYGHFQATITIVEGILEVNIIQMTDVLMPVPWPESSLIDFVVTCQGSIPTEVCTIISDPTCEITQNTVCSPVDVDEMCLLTVRRTFNGSGTYCVNLTLGDDTSLALTSTLISVPDRDPASPLRMANSALISVGCLAIFVTVISLLVYKKHKEFNPIENSPGNVVRSKGLSVFLNRAKAVFFPGNQEKDPLLKNQEFKGVS [Y525F]
